Results reported in patent publication US6548060 (dated 2003).
One block for each molecule: values may come before it.

Legend:
[1] = target: ASK1 (apoptosis signal-regulating kinase), full-length (UniProt Q99683); experiment: cell-based or functional assay
[2] = target: T1, N-terminal 236 aa extension of human glutaminyl-tRNA synthetase, P47897
T1 chain: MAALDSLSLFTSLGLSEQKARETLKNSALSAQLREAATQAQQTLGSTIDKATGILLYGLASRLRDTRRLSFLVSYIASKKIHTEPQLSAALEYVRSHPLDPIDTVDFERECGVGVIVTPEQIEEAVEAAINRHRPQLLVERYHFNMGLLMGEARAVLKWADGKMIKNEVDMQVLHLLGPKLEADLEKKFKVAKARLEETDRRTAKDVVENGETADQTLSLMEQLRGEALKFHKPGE

[3] = target: constitutive active mutant of Daxx, C-terminal 242 aa, Q9UER7
Sequence of constitutive active mutant of Daxx, C-terminal 242 aa, Q9UER7 (Q9UER7 whole entry, looked up, change not shown): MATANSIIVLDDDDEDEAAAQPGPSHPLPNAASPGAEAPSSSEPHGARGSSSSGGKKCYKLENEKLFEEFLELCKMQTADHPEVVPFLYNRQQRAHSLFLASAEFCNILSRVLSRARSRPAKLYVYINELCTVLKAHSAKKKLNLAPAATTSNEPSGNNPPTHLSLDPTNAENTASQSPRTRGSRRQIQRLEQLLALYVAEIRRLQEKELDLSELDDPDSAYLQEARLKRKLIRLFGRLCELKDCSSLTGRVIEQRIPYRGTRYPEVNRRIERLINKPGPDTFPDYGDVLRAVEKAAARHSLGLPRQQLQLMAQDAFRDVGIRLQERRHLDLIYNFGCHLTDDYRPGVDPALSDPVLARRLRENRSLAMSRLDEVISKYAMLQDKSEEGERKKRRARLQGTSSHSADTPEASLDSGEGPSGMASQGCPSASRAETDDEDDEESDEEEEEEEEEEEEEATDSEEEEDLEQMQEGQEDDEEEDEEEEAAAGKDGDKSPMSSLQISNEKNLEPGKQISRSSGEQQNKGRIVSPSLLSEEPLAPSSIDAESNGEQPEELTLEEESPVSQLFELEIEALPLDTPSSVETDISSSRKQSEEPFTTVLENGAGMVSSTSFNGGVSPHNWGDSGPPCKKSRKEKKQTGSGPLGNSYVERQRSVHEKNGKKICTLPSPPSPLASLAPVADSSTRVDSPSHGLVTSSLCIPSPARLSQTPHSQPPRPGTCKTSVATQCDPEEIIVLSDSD

[4] = target: T2, human glutaminyl-tRNA synthetase, full-length (human, UniProt P47897 1-775); experiment: yeast two-hybrid (FIG. 2A)
T2 construct: range 1-775; Fused to LexA in the yeast two-hybrid assay (pEG202); also called QRS; QRS-F
T2 sequence (looked up): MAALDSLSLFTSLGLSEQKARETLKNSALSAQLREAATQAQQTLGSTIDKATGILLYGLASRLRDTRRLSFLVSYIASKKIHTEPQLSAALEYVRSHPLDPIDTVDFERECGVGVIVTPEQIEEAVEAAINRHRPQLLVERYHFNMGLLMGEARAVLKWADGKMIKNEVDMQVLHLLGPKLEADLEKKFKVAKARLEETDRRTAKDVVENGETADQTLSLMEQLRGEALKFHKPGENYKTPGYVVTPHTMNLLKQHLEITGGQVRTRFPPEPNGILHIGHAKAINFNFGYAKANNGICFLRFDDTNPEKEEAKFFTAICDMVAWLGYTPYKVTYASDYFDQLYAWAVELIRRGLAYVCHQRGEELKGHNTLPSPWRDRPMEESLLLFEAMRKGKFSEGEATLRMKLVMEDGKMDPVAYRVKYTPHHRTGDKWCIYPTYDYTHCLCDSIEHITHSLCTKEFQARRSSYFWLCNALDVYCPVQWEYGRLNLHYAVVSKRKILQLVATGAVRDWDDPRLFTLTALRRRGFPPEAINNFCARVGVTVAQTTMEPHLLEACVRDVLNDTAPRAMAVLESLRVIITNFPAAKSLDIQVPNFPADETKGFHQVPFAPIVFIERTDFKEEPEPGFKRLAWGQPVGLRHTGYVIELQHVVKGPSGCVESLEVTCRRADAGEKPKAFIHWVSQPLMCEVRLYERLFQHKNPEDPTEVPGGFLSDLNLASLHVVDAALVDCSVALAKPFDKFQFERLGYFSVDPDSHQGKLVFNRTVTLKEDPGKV
Procedure: (§1) Figure 2: FIG. 2. Interaction of QRS-N and Daxx-C. A. (upper panel) The interaction of QRS and Daxx was mapped by yeast two hybrid analysis. The full-length (F), N-terminal 236 aa (N) and C-terminal 539 aa (C) peptides of QRS, and the full-length ASK1 were fused to LexA (DNA-binding protein). […] The pairs of LexA and B42 hybrid proteins were expressed in a yeast tester strain and the positive interactions were determined by the formation of blue colonies as described previously (8). […] Daxx-C and QRS-N were expressed as His (pET28a, Novagen) and GST (pGEX4T-2, Amersham Pharmacia Biotech) fusion proteins, respectively and purified following the manufacturer's instructions. The purified His-Daxx-C (5 ug) was mixed with GST or GST-QRS-N (5 ug) at 4° C. for 30 min in 20 mM sodium phosphate buffer, pH 7.8, containing 500 mM NaCl. The GST proteins were precipitated with the GST resin (10 ul) and the precipitated proteins were eluted and resolved by 12% SDS-polyacrylamide gel electrophoresis and stained with Coomasie blue. Figure 2:
(§2) Human Daxx was originally identified to be associated to Fas to mediate apoptotic signal ( 10) to its downstream kinase, ASK1 (11). The activation of ASK1 then results in activation of Jun N-terminal kinase (JNK) and p38 for cellular apoptosis (12). The interaction between QRS and Daxx was further refined by yeast two hybrid analysis. […]

[5] = target: T3, N-terminal 610 aa peptide of Daxx (human, UniProt Q9UER7 1-610); experiment: yeast two-hybrid (FIG. 2A lower panel)
T3 construct: range 1-610; Yeast two-hybrid construct; 610 aa overlaps Daxx-C (604-740) by a few residues as printed; also called Daxx-N
T3 sequence (Q9UER7 1-610 limits assumed): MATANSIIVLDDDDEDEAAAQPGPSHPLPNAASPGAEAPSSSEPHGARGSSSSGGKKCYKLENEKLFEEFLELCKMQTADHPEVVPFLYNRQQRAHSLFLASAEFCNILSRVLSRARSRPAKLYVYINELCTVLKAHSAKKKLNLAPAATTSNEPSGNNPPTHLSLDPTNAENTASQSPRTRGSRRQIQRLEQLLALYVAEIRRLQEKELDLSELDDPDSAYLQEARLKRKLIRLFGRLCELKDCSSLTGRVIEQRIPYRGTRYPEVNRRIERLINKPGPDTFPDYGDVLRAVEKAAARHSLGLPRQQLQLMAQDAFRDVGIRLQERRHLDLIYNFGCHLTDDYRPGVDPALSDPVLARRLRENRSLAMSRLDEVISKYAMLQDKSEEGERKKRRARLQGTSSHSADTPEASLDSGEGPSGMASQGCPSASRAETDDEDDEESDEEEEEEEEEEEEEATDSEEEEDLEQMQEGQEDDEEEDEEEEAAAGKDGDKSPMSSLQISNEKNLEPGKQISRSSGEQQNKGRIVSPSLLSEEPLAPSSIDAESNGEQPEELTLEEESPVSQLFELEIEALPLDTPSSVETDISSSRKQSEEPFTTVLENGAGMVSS
Procedure: as §1, with “Interaction” for “Figure 2: FIG. 2. Interaction”
as §2

[6] = target: T4, N-terminal 236 aa extension of human glutaminyl-tRNA synthetase (human, UniProt P47897 1-236); experiment: in vitro pull-down, purified His-Daxx-C with GST-QRS-N on GST resin, Coomassie-stained gel (FIG. 2B)
T4 construct: range 1-236; LexA fusion in yeast two-hybrid; GST fusion (pGEX4T-2), purified, in the in vitro pull-down; Myc-tagged from pcDNA3 in 293 cells for co-IP; also called QRS-N; LexA-QRS-N
T4 sequence (looked up): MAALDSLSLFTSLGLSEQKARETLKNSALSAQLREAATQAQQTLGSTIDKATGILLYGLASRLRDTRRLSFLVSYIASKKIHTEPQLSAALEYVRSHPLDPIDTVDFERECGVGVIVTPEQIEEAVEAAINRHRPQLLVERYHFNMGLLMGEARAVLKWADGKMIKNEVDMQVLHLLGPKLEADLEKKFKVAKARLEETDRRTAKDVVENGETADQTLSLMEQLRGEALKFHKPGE
Procedure: as §1
The interaction between the Daxx-C and QRS-N was confirmed by in vitro pull down experiment. Daxx-C and QRS-N were expressed as His and GST fusion proteins, respectively. The purified two fusion proteins were then mixed and precipitated with the GST resin. Daxx-C was co-precipitated with QRS-N, confirming the direct interaction between the two molecules (FIG. 2B).

apoptotic cells (HeLa, beta-galactosidase co-transfection, apoptotic morphology) [1]: 11%
Molecule: constitutive active mutant of Daxx, C-terminal 242 aa (from UniProt Q9UER7 499-740)

B1: ASK1 (apoptosis signal-regulating kinase), full-length (protein)
chain: MSTEADEGITFSVPPFAPSGFCTIPEGGICRRGGAAAVGEGEEHQLPPPPPGSFWNVESAAAPGIGCPAATSSSSATRGRGSSVGGGSRRTTVAYVINEASQGQLVVAESEALQSLREACETVGATLETLHFGKLDFGETTVLDRFYNADIAVVEMSDAFRQPSLFYHLGVRESFSMANNIILYCDTNSDSLQSLKEIICQKNTMCTGNYTFVPYMITPHNKVYCCDSSFMKGLTELMQPNFELLLGPICLPLVDRFIQLLKVAQASSSQYFRESILNDIRKARNLYTGKELAAELARIRQRVDNIEVLTADIVINLLLSYRDIQDYDSIVKLVETLEKLPTFDLASHHHVKFHYAFALNRRNLPGDRAKALDIMIPMVQSEGQVASDMYCLVGRIYKDMFLDSNFTDTESRDHGASWFKKAFESEPTLQSGINYAVLLLAAGHQFESSFELRKVGVKLSSLLGKKGNLEKLQSYWEVGFFLGASVLANDHMRVIQASEKLFKLKTPAWYLKSIVETILIYKHFVKLTTEQPVAKQELVDFWMDFLVEATKTDVTVVRFPVLILEPTKIYQPSYLSINNEVEEKTISIWHVLPDDKKGIHEWNFSASSVRGVSISKFEERCCFLYVLHNSDDFQIYFCTELHCKKFFEMVNTITEEKGRSTEEGDCESDLLEYDYEYDENGDRVVLGKGTYGIVYAGRDLSNQVRIAIKEIPERDSRYSQPLHEEIALHKHLKHKNIVQYLGSFSENGFIKIFMEQVPGGSLSALLRSKWGPLKDNEQTIGFYTKQILEGLKYLHDNQIVHRDIKGDNVLINTYSGVLKISDFGTSKRLAGINPCTETFTGTLQYMAPEIIDKGPRGYGKAADIWSLGCTIIEMATGKPPFYELGEPQAAMFKVGMFKVHPEIPESMSAEAKAFILKCFEPDPDKRACANDLLVDEFLKVSSKKKKTQPKLSALSAGSNEYLRSISLPVPVLVEDTSSSSEYGSVSPDTELKVDPFSFKTRAKSCGERDVKGIRTLFLGIPDENFEDHSAPPSPEEKDSGFFMLRKDSERRATLHRILTEDQDKIVRNLMESLAQGAEEPKLKWEHITTLIASLREFVRSTDRKIIATTLSKLKLELDFDSHGISQVQVVLFGFQDAVNKVLRNHNIKPHWMFALDSIIRKAVQTAITILVPELRPHFSLASESDTADQEDLDVEDDHEEQPSNQTVRRPQAVIEDAVATSGVSTLSSTVSHDSQSAHRSLNVQLGRMKIETNRLLEELVRKEKELQALLHRAIEEKDQEIKHLKLKSQPIEIPELPVFHLNSSGTNTEDSELTDWLRVNGADEDTISRFLAEDYTLLDVLYYVTRDDLKCLRLRGGMLCTLWKAIIDFRNKQT
kinase activity of ASK1 (MBP phosphorylation, immunocomplex kinase assay) [2]: The ASK1 activity was inhibited by the expression of QRS-F and -C but not of QRS -N
ASK1 kinase activity (GST-SEK1 as substrate) [3]: The active mutant of Daxx (Daxx-CA) activated ASK1

binding result [4]: binds
binding result [5]: binds
binding result [6]: binds
B2: C-terminal 137 aa peptide of human Daxx (G604-D740) (other, UniProt Q9UER7 604-740, looked up)
chain: GAGMVSSTSFNGGVSPHNWGDSGPPCKKSRKEKKQTGSGPLGNSYVERQRSVHEKNGKKICTLPSPPSPLASLAPVADSSTRVDSPSHGLVTSSLCIPSPARLSQTPHSQPPRPGTCKTSVATQCDPEEIIVLSDSD
notes: range 604-740; B42 fusion in yeast two-hybrid; His fusion (pET28a), purified, in the in vitro pull-down; also called Daxx-C; B42-Daxx-C
